Substrate: N[C@@H](Cc1ccc(O)cc1)C(=O)O
Assay: enzyme kinetics (Km), phenol by LC-MS
Format: biochemical, Morganella morganii
Conditions: pyridoxal […]'-phosphate (PLP)

B1: Tyrosine phenol-lyase (TPL) (Morganella morganii subsp. morganii KT) (protein)
chain: MMYPAEPYRIKSVETVSMIPREERIKRMKEAGYNTFLLNSKDVYVDLLTDSGTNAMSDKQWAGMMMGDEAYAGSENFFHLERTVQELFGFKHIVPTHQGRGAENLLSSLAIKPGQYVAGNMYFTTTRYHQEKNGATFIDIVRDEAHDAGLDVKFKGNIDIKKLEKLIAEKGAENIAYICLAVTVNLAGGQPVSMANMREVRQLCDKHGIKVFYDATRCVENAYFIKEQEEGFEDVSIKDIVHEMFSYADGCTMSGKKDCLVNIGGFLCMNDDDMFSAARELVVVYEGMPSYGGLAGRDMEAMAIGLREAMQFEYIEHRVKQVRYLGEKLKAAGVPIVEPVGGHAVFLDARRFCPHLTQDEFPAQSLAASIYMETGVRSMERGIISAGRNKETGDHHRPKLETVRLTIPRRVYTYAHMDLVADGIIKLFKHKEDIKGLKFVYEPKQLRFFTARFDYV
notes: recombinant TPL from M. morganii ssp. morganii (JCM1672), pET-15b
B1 gave a Km of 270 µM.

Reference: PMC11259132, “Tyrosine phenol-lyase inhibitor quercetin reduces fecal phenol levels in mice” (PNAS Nexus, 2024)
